From article PMC4728560, “TCTP contains a BH3-like domain, which instead of inhibiting, activates Bcl-xL” (Scientific Reports, 2016)

Molecular target: T1, Bcl-xL, recombinant protein (human, UniProt Q07817-1 1-233)
T1 construct: Bcl-xL, human; also called wild type Bcl-xL; source: purified recombinant protein; host and details in Supplementary Information
Experiment: ITC; peptide titrated into Bcl-xL in the cell; 30 °C, 50 mM ammonium bicarbonate pH 9; ITC200 calorimeter
Settings: both partners purified

T1 sequence (Q07817 whole entry): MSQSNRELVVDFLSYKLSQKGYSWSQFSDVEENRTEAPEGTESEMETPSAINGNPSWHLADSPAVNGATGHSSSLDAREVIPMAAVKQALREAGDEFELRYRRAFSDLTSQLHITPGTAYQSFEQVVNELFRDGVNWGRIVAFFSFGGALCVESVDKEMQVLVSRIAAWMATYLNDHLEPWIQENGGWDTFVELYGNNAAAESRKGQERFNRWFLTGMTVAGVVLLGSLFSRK

QPPQDASTKKLSECIREIADGLCLEV [hybrid Bax/TCTP peptide (TCTP BH3 peptide containing the Bax h1 (P1) sub-region)] was tested, and the Kd was 500 nM.
